The source of these data is patent US20140274782A1, “AFFINITY REAGENTS AND METHODS FOR DETECTION, PURIFICATION, AND PROTEOMIC ANALYSIS OF METHYLATED PROTEINS” (The Board of Trustees of the Leland Stanford Junior …, priority 2013, published 2014).

One assay deals with 3×MBT domain of L3MBTL1. The assay is described as follows: Triple SILAC pull-down, 3xMBT/3xMBTD355N ratio (cytoplasmic, nuclear and chromatin fractions of 293T cells).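 As to all read-outs here: proteins quantified with MaxQuant, requiring at least two unique peptides and quantification in both label directions, normalized to the mean of proteins from a digested loading control.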 It is filed as binding, human. The note with it: SILAC ratio 3xMBT vs 3xMBTD355N pull-down, 293T cells, all values in log base 2; for 3xMBT/D355N UNC Heavy: experiment with UNC0638 in heavy SILAC media; for 3xMBT/D355N UNC Light: experiment with UNC0638 in light SILAC media.

In a further assay the target is T1, G9a and GLP (Homo sapiens, UniProt Q96KQ7+Q9H9B1).
T1 sequence (Q96KQ7 2-1210 limits assumed): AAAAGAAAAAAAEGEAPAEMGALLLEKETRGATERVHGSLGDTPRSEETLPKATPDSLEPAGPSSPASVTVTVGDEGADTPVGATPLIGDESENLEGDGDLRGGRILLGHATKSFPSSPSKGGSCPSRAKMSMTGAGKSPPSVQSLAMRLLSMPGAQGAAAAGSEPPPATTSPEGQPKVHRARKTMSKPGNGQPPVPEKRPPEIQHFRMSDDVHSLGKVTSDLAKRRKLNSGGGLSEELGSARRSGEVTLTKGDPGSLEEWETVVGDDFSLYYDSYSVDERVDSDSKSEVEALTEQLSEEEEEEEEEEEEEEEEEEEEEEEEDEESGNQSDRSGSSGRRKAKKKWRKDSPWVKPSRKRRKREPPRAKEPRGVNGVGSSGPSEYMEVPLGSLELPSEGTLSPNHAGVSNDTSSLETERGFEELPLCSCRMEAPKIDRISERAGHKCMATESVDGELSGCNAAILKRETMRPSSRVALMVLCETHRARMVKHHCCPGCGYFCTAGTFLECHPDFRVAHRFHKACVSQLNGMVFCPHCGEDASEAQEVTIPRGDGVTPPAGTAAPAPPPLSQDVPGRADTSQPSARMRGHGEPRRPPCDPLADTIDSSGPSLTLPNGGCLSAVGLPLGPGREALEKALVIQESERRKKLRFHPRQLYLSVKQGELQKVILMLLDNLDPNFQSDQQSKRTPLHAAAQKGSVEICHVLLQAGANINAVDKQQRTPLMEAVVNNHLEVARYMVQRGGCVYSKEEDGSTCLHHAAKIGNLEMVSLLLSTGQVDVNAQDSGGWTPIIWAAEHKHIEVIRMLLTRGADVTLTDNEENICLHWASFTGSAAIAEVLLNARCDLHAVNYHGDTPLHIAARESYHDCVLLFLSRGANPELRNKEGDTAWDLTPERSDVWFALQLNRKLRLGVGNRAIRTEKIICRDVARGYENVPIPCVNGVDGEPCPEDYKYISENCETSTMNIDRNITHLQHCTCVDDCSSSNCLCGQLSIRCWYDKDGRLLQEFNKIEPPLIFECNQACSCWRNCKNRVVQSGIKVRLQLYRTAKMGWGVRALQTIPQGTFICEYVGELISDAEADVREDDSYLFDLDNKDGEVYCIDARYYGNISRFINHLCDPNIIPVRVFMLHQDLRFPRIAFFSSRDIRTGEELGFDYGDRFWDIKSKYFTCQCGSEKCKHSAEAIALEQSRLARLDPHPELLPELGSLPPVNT
T1 sequence (Q9H9B1 2-1298 limits assumed): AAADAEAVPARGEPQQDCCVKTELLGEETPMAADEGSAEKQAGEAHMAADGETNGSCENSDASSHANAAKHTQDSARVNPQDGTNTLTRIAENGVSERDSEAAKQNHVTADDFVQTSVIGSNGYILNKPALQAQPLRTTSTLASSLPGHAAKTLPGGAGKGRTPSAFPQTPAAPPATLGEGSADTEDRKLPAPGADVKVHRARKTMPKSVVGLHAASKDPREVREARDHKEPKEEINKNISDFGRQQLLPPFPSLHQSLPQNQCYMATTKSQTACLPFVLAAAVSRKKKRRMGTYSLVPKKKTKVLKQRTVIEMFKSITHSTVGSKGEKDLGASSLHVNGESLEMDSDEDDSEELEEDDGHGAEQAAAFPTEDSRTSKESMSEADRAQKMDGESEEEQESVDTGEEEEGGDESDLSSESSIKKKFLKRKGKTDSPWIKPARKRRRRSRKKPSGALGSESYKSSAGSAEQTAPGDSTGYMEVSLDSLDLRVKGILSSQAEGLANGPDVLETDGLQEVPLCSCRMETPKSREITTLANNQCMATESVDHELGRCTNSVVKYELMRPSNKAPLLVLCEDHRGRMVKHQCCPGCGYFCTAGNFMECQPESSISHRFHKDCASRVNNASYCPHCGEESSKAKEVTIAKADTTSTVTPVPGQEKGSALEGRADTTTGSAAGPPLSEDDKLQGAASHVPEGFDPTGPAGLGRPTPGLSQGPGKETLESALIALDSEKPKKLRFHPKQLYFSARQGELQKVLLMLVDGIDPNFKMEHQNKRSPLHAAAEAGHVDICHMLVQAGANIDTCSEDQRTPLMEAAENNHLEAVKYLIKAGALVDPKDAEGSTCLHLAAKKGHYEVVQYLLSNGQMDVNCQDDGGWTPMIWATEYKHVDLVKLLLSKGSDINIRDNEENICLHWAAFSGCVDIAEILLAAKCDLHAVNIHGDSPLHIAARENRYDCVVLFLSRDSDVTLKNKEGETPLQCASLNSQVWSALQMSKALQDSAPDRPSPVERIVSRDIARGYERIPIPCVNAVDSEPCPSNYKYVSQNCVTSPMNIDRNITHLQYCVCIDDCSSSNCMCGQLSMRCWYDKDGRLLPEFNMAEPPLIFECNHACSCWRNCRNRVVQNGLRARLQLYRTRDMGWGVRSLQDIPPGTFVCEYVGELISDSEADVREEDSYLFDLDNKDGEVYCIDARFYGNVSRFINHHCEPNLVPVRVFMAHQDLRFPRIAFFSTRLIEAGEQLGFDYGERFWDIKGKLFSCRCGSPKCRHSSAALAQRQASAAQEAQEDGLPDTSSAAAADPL
The assay is described as follows: Triple SILAC pull-down after UNC0638 treatment of 293T cells, DMSO/UNC0638 ratio of protein captured by 3×MBT.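 As to all read-outs here: mass spectrometry (Q-Exactive) SILAC quantitation, DMSO/UNC0638 ratio computed after subtracting 3×MBTD355N mutant pull-down background, only proteins with at least twofold 3×MBT over mutant signal considered.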 It counts as cell-based. The note with it: all values in log base 2; for Relative to UNC0638 UNC Heavy / Relative to UNC0638 UNC Light: SILAC ratio DMSO relative to UNC0638, pull-down with 3xMBT; for Relative to UNC0638 UNC Heavy: UNC0638 in heavy SILAC media; for Relative to UNC0638 UNC Light: UNC0638 in light SILAC media; for Relative to UNC0638 Average: average of UNC Light and UNC Heavy experiments. The arrangement: endogenous in cells; host or cells: HEK 293T.

B1: YTHDC2 (protein, UniProt Q9H6S0 1-1430, looked up)
3'-5' RNA helicase YTHDC2: MSRPSSVSPRQPAPGGGGGGGPSPCGPGGGGRAKGLKDIRIDEEVKIAVNIALERFRYGDQREMEFPSSLTSTERAFIHRLSQSLGLVSKSKGKGANRYLTVKKKDGSETAHAMMTCNLTHNTKHAVRSLIQRFPVTNKERTELLPKTERGNVFAVEAENREMSKTSGRLNNGIPQIPVKRGESEFDSFRQSLPVFEKQEEIVKIIKENKVVLIVGETGSGKTTQIPQFLLDDCFKNGIPCRIFCTQPRRLAAIAVAERVAAERRERIGQTIGYQIRLESRVSPKTLLTFCTNGVLLRTLMAGDSTLSTVTHVIVDEVHERDRFSDFLLTKLRDLLQKHPTLKLILSSAALDVNLFIRYFGSCPVIYIQGRPFEVKEMFLEDILRTTGYTNKEMLKYKKEKQQEEKQQTTLTEWYSAQENSFKPESQRQRTVLNVTDEYDLLDDGGDAVFSQLTEKDVNCLEPWLIKEMDACLSDIWLHKDIDAFAQVFHLILTENVSVDYRHSETSATALMVAAGRGFASQVEQLISMGANVHSKASNGWMALDWAKHFGQTEIVDLLESYSATLEFGNLDESSLVQTNGSDLSAEDRELLKAYHHSFDDEKVDLDLIMHLLYNICHSCDAGAVLIFLPGYDEIVGLRDRILFDDKRFADSTHRYQVFMLHSNMQTSDQKKVLKNPPAGVRKIILSTNIAETSITVNDVVFVIDSGKVKEKSFDALNFVTMLKMVWISKASAIQRKGRAGRCRPGICFRLFSRLRFQNMLEFQTPELLRMPLQELCLHTKLLAPVNCPIADFLMKAPEPPPALIVRNAVQMLKTIDAMDTWEDLTELGYHLADLPVEPHLGKMVLCAVVLKCLDPILTIACTLAYRDPFVLPTQASQKRAAMLCRKRFTAGAFSDHMALLRAFQAWQKARSDGWERAFCEKNFLSQATMEIIIGMRTQLLGQLRASGFVRARGGGDIRDVNTNSENWAVVKAALVAGMYPNLVHVDRENLVLTGPKEKKVRFHPASVLSQPQYKKIPPANGQAAAIKALPTDWLIYDEMTRAHRIANIRCCSAVTPVTILVFCGPARLASNALQEPSSFRVDGIPNDSSDSEMEDKTTANLAALKLDEWLHFTLEPEAASLLLQLRQKWHSLFLRRMRAPSKPWSQVDEATIRAIIAVLSTEEQSAGLQQPSGIGQRPRPMSSEELPLASSWRSNNSRKSSADTEFSDECTTAERVLMKSPSPALHPPQKYKDRGILHPKRGTEDRSDQSSLKSTDSSSYPSPCASPSPPSSGKGSKSPSPRPNMPVRYFIMKSSNLRNLEISQQKGIWSTTPSNERKLNRAFWESSIVYLVFSVQGSGHFQGFSRMSSEIGREKSQDWGSAGLGGVFKVEWIRKESLPFQFAHHLLNPWNDNKKVQISRDGQELEPLVGEQLLQLWERLPLGEKNTTD
On to B1, for which, in the assay on 3×MBT domain of L3MBTL1, the “3xMBT/D355N UNC Heavy” value came out at 1.74 log base 2 and the “3xMBT/D355N UNC Light” value is 2.87 log base 2. Moreover, in the assay with G9a and GLP, the “Relative to UNC0638 UNC Heavy” value is recorded as −0.10 log base 2, the “Relative to UNC0638 UNC Light” value is given as −0.07 log base 2 and the “Relative to UNC0638 Average” value is −0.08 log base 2.

B2: SMARCA1 (protein, UniProt P28370 1-1042, looked up)
SWI/SNF-related …: MEQDTAAVAATVAAADATATIVVIEDEQPGPSTSQEEGAAAAATEATAATEKGEKKKEKNVSSFQLKLAAKAPKSEKEMDPEYEEKMKADRAKRFEFLLKQTELFAHFIQPSAQKSPTSPLNMKLGRPRIKKDEKQSLISAGDYRHRRTEQEEDEELLSESRKTSNVCIRFEVSPSYVKGGPLRDYQIRGLNWLISLYENGVNGILADEMGLGKTLQTIALLGYLKHYRNIPGPHMVLVPKSTLHNWMNEFKRWVPSLRVICFVGDKDARAAFIRDEMMPGEWDVCVTSYEMVIKEKSVFKKFHWRYLVIDEAHRIKNEKSKLSEIVREFKSTNRLLLTGTPLQNNLHELWALLNFLLPDVFNSADDFDSWFDTKNCLGDQKLVERLHAVLKPFLLRRIKTDVEKSLPPKKEIKIYLGLSKMQREWYTKILMKDIDVLNSSGKMDKMRLLNILMQLRKCCNHPYLFDGAEPGPPYTTDEHIVSNSGKMVVLDKLLAKLKEQGSRVLIFSQMTRLLDILEDYCMWRGYEYCRLDGQTPHEEREEAIEAFNAPNSSKFIFMLSTRAGGLGINLASADVVILYDSDWNPQVDLQAMDRAHRIGQKKPVRVFRLITDNTVEERIVERAEIKLRLDSIVIQQGRLIDQQSNKLAKEEMLQMIRHGATHVFASKESELTDEDITTILERGEKKTAEMNERLQKMGESSLRNFRMDIEQSLYKFEGEDYREKQKLGMVEWIEPPKRERKANYAVDAYFREALRVSEPKIPKAPRPPKQPNVQDFQFFPPRLFELLEKEILYYRKTIGYKVPRNPDIPNPALAQREEQKKIDGAEPLTPEETEEKEKLLTQGFTNWTKRDFNQFIKANEKYGRDDIDNIAREVEGKSPEEVMEYSAVFWERCNELQDIEKIMAQIERGEARIQRRISIKKALDAKIARYKAPFHQLRIQYGTSKGKNYTEEEDRFLICMLHKMGFDRENVYEELRQCVRNAPQFRFDWFIKSRTAMEFQRRCNTLISLIEKENMEIEERERAEKKKRATKTPMVKFSAFS
As to B2, in the assay on 3×MBT domain of L3MBTL1, the “3xMBT/D355N UNC Heavy” value turned out to be 0.79 log base 2 and the “3xMBT/D355N UNC Light” value is listed as 3.03 log base 2. Besides, in the assay with G9a and GLP, the “Relative to UNC0638 UNC Heavy” value is −0.35 log base 2, the “Relative to UNC0638 UNC Light” value worked out at 0.18 log base 2 and the “Relative to UNC0638 Average” value is on record as −0.09 log base 2.
